Test [1] addresses human sodium-dependent phosphate transporter 2B (NaPi2b) (human) (UniProt O95436). Description: flow cytometry competition, HEK293-6e cells expressing human NaPi2b; row antibody unlabeled at 100 ug/mL (the reference of the calculation); competitor: AF647-labeled v23855 at 1 ug/mL.
Test [2] shares this target. Description: flow cytometry competition, HEK293-6e cells expressing human NaPi2b; row antibody unlabeled at 100 ug/mL (the reference of the calculation); competitor: AF647-labeled v18993 (lifastuzumab) at 1 ug/mL.
Test [3] has the same target. Description: flow cytometry competition, HEK293-6e cells expressing human NaPi2b; row antibody unlabeled at 100 ug/mL (the reference of the calculation); competitor: AF647-labeled v16955 (negative control) at 1 ug/mL.
For test [4] the target is unchanged. Description: flow cytometry competition, HEK293-6e cells expressing human NaPi2b; row antibody unlabeled at 100 ug/mL (the reference of the calculation); competitor: AF647-labeled v18992 (MX35) at 1 ug/mL.
Test [5] deals with Fcγ receptor (FcγR) on the surface of immune effector cells. Description: cell-based or functional assay.

Sequence of human sodium-dependent phosphate transporter 2B (NaPi2b) (human) (O95436 whole entry): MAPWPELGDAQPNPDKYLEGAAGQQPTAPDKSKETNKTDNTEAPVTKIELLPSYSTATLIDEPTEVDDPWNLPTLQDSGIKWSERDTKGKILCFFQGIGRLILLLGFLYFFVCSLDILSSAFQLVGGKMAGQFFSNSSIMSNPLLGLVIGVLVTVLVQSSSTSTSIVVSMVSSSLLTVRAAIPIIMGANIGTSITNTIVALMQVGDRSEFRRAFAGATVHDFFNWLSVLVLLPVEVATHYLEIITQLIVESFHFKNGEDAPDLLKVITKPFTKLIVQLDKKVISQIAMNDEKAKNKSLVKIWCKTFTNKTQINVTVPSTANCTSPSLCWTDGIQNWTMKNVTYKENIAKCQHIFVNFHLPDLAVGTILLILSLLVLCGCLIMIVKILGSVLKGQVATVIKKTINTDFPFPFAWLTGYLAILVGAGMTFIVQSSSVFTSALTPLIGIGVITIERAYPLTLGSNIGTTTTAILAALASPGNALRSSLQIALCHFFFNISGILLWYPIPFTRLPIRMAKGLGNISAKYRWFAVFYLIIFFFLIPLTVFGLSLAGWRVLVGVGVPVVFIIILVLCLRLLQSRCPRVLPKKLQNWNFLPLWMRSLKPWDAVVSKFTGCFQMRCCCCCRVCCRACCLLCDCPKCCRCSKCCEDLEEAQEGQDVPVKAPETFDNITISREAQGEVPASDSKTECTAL

On to “v16955 (Palivizumab), anti-RSV negative control antibody”, for which the % Inhibition vs. irrelevant mAb in test [1], in test [2], in test [3] and in test [4] was 0% in each case.
With v18993 (lifastuzumab) (antibody), in test [5], the % ADCC at 0.0192 nM (25 PBMCs:1 IGROV-1) was found to be 5.96%, the % ADCC at 0.48 nM (25 PBMCs:1 IGROV-1) worked out at 14% and the % ADCC at 12 nM (25 PBMCs:1 IGROV-1) is 14.4%.

The values are drawn from patent US20250235548A1, “ANTIBODY-DRUG CONJUGATES TARGETING NAPI2B AND METHODS OF USE” (Zymeworks BC Inc., priority 2022, published 2025).
